Measurements from patent US20240368242A1.

Assays:
[1] = biological target: recombinant human CD47 protein (human) (UniProt Q08722); assay: SPR, binding to human CD47
Human FcRn (human) = Human FcRn (human) (UniProt P55899); assay: SPR, binding to human FcRn
Human FcγR1A = assay: SPR, binding to human FcγR1A
FcRn-His (Example 11) = assay: SPR (BioRad ProteOn XPR 360), His-tagged target chip-bound
[2] = biological target: murine OX40 expressed on CHOK1 cells (CHOK1/mOX40) (murine) (UniProt P47741); assay: flow cytometry on CHOK1-mOX40 cells
Chain of murine OX40 expressed on CHOK1 cells (CHOK1/mOX40) (murine) (P47741 20-272): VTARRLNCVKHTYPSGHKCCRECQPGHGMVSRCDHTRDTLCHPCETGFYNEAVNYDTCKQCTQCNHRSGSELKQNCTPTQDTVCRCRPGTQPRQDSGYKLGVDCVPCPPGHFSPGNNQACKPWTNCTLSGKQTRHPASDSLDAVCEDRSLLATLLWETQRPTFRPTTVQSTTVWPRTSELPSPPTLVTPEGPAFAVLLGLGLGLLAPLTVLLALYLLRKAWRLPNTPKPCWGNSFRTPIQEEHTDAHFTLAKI

Chain of FcRn-His (Example 11) (Q61559 22-297, chain 1 of 2): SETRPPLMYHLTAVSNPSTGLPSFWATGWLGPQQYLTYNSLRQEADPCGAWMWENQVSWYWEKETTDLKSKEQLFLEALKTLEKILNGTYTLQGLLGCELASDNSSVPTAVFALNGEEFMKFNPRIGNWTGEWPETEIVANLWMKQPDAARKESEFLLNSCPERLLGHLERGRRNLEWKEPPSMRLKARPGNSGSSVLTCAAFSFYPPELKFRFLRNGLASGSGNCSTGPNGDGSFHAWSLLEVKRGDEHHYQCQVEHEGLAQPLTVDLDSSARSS
Chain of FcRn-His (Example 11) (P01887 21-119, chain 2 of 2, further chain): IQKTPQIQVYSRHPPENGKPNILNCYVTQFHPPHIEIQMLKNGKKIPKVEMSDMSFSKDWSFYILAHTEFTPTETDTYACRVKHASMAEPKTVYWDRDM
Chain of recombinant human CD47 protein (human) (Q08722 19-139 limits assumed): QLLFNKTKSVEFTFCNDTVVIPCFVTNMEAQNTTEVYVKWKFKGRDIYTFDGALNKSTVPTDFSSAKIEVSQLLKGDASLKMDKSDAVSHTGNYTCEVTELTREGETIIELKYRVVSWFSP
Chain of Human FcRn (human) (P55899 24-297 limits assumed, chain 1 of 2): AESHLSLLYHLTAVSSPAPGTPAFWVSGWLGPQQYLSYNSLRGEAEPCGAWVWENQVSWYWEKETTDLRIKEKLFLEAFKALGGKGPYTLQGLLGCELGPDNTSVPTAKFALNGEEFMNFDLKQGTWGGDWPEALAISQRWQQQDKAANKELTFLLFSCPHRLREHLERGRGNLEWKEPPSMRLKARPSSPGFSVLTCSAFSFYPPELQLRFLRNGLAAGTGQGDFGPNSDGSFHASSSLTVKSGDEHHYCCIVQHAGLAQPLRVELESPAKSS
Chain of Human FcRn (human) (chain, as listed by the source limits assumed, chain 2 of 2): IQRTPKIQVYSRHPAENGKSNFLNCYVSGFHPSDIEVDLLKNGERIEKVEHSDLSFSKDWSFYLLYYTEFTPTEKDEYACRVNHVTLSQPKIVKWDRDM
Chain of Human FcγR1A (chain, as listed by the source limits assumed): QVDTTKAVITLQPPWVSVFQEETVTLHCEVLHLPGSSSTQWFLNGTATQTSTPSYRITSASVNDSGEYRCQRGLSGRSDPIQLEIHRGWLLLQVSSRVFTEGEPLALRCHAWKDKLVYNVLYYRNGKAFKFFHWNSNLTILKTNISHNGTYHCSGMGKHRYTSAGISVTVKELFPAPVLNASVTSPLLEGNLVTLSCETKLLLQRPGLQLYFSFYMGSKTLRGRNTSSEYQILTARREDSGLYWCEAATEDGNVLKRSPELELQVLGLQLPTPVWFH

CD172a-Fc Cntl (Fc fusion)
Kd [1]: 3.16 nM
koff [1]: 0.00239 s⁻¹
kon [1]: 756000 M⁻¹ s⁻¹

IgG1 (antibody)
koff (Human FcRn (human)): 0.0046 s⁻¹
kon (Human FcRn (human)): 945000 M⁻¹ s⁻¹
koff (Human FcγR1A): 0.00044 s⁻¹
kon (Human FcγR1A): 24900 M⁻¹ s⁻¹

IgG2A (control protein, Example 11) (antibody)
Kd (FcRn-His (Example 11)): 8.08 nM
koff (FcRn-His (Example 11)): 0.0242 s⁻¹
kon (FcRn-His (Example 11)): 3e+06 M⁻¹ s⁻¹

murine TIM3-Fc-OX40L chimeric protein (from UniProt Q8VIM0 20-193; P43488 51-198) (Fc fusion)
affinity (cell binding assay) [2]: 15.2 nM
